Results taken from the RNAGym collection of RNA variant scans (doi:10.1073/pnas.2313332121).

B1: TPR t1 (parent)
chain: GACCAAUCUGCCCUCAGAGCUCGAGAACAUCUUCGGAUGCAGAGGAGGCAGGCUUCGGUGGCGCGAUAGCGCCAACGUCCUCAACCUCCAAUGCAUCCCACCACAUGAUGAUGCCUGAAGAGCCUUGGUUUUUUG

Variants of: B1
Test: polymerase ribozyme fitness, log enrichment relative to wild type (log ratio); higher = more active; in vitro selection for triplet polymerase activity
Procedure, shortened: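 Only genotypes with ≥10 input reads and ≥1 read per output were kept after Illumina sequencing of input and output libraries. These libraries were PCR-built, transcribed mutants of each subunit of a heterodimeric triplet polymerase ribozyme, each put through one triplicate in vitro selection round with frozen incubation at −7 °C, gel excision of extended constructs, streptavidin-bead capture and RT-PCR. Fitness is a logarithmic ratio of genotype enrichment to wild-type enrichment, from inverse-variance-weighted replicate averages, with the logarithm in base 2.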

Row | Variant | polymerase ribozyme fitness (log ratio)
1 | G10A C15G G61U | -3.16
2 | U9G G36U G60C A68G U78A C88A | -6.1
3 | G10C C28G | -3.74
4 | G10C G47U C101A A103U | -6.38
5 | G10C C12A G51A G127C | -4.99
6 | U9A U21G A41U G45A | -4.48
7 | U9A U33A G36U C89G C124A | -5.28
8 | G10U A50U | -1.65
9 | U9G A66U C80A C85U | -5.32
10 | G10C C73A | -1.86
11 | G10A G71A C80A | -4.78
12 | U9C G19A | -1.95
13 | U9C G19C | -2.29
14 | U9G C123G | 1.31
15 | U9G C123U | 0.831
16 | U9G A18C G117C | 0.268
17 | G10U C12U C31U C72U C85A G122A | -5.23
18 | G10A A41U C53U U78G C89A A105U G120U | -5.97
19 | G10A U32C C72G U87A U131A | -2.99
20 | U9G C70A C76U | -3.45
21 | G10U C13U G60C G107A U112C G127U | -4.55

Row | Variant | polymerase ribozyme fitness (log ratio)
22 | G10A A83C G110C U133A | -3.93
23 | G10A C97U | -0.852
24 | G10C A26G G71A | -2.61
25 | U9C C15A G45C G57C U59A G120A | 0.743
26 | G10A C40A C56A A84C C85A C99A C115U | -7.46
27 | G10U C15U C56A C72G G120A | -0.935
28 | G10A U33G | -4.61
29 | U9G C31U C94G | -6.42
30 | U9C U67C C82G U109C | -6.64
31 | U9C A43U C73U C79U A111G | -0.526
32 | U9C A16G G57C G110C | -4.22
33 | U9G C34A G120C | -0.929
34 | G10C C15A | -2.21
35 | U9A G39C G61C U78A U87G G110U | -2
36 | U9G G71U | 0.107
37 | U9G C22U U54G C104U | -4.59
38 | U9G U21A C97A | -4.03
39 | U9G C104U | 0.944
40 | U9A U14A C64U | 0.0854
41 | G10C C98U | -1.81
42 | G10C G25C C31G C89A C114U | -7.2

Row | Variant | polymerase ribozyme fitness (log ratio)
43 | U9G C11G C94U | -4.64
44 | G10U C11U | 0.0495
45 | U9G G51C G61U G127C | -3.3
46 | G10A C13U U30G A46C C72U C123G | -6.25
47 | G10A G61U A100C G135U | -1.17
48 | G10A C40U G69C C123G | -0.405
49 | U9G C72A | -0.48
50 | U9G C89U | 0.304
51 | G10A C12U U112A | 1.73
52 | U9A G48C G77A C88U U112A | 0.603
53 | G10A C12G C22G C104G | -5.13
54 | G10A G120U G122A | 1.51
55 | G10U C40A C64U U81C | -2.46
56 | U9G U55C C89U C94A U126A | -1.95
57 | U9C G42U C53G C56A C73A C88U | -1.43
58 | G10U A16C C49U A118G C124A | -2.5
59 | U9G C13A U59A C72A | -1.53
60 | G10C C13A C64U C82U A83C | -1.29
61 | G10U A27U C76G U109G | -5.77
62 | U9C C20A G69C C101A | -6.63
63 | U9G C62U | -0.19

Row | Variant | polymerase ribozyme fitness (log ratio)
64 | U9G A27U U133G | -2.53
65 | G10A C88A A90G G122U U133G | 0.185
66 | G10A C20A U87A C124U | -0.469
67 | U9G U30C G120C G127A | -3.41
68 | U9G C40U G45U U129C G135A | -3.12
69 | G10U C56A U59C U112A | -0.649
70 | U9A G61U C85U G117U | 0.0255
71 | G10C G61A G93C | -1.11
72 | U9C G60U A105U A119G | -1.05
73 | G10A A29U C72A C88G U116G | -3.97
74 | G10U C34G C102U | -6.42
75 | G10U C22U G47A G63C U96A C123A | -5.69
76 | U9C A29U G61A C88U C102U | -4.47
77 | U9G G36A C101G A121U | -0.24
78 | G10A G47A A68G U109C C123G | -6.84
79 | G10A G57U A90G U126A | -1.18
80 | U9C C72G | 0.104
81 | U9C C72U | 0.343
82 | U9C G69U A100U U112A C123U | 2.09
83 | U9G G65A C72G G122A C123G U129G | -5.67
